The source of these data is publication PMC6011876, “Characterization of the ATPase FlaI of the motor complex of the Pyrococcus furiosus archaellum and its interactions between the ATP-binding protein FlaH” (PeerJ, 2018).

In general, IC50 refers to the concentration at which inhibition is half-maximal. Low readings indicate higher potency, high ones lower potency. A word on the Kd: it is the equilibrium constant for the complex coming apart. A lower Kd goes with higher affinity. The term stoichiometry N denotes the number of molecules, sites or subunits per partner or assembly.

The target of assay [1] is T1, PfFlaI (Pyrococcus furiosus, UniProt Q8U3X0).
T1 construct: gene PF0331; full length, His-tagged, overexpressed in E. coli Rosetta (DE3), 64 kDa subunit, nucleotide-free homohexamer
T1 sequence (Q8U3X0 entry or part of it): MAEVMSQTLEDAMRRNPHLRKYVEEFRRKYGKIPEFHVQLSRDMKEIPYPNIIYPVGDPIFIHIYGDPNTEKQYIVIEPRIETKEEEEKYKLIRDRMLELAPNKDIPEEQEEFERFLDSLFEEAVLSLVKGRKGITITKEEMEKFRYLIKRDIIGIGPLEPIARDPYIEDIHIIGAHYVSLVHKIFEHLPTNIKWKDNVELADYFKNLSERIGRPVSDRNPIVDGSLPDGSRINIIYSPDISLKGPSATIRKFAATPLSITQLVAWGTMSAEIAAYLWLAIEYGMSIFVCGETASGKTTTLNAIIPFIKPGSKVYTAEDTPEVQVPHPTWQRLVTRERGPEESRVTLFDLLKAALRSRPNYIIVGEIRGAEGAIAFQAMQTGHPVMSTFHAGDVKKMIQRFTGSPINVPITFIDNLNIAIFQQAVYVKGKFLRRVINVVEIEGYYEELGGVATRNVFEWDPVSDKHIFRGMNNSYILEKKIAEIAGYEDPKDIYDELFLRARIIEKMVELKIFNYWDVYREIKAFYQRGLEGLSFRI
Description: fluorescence titration (excitation […] nm, emission […] nm). In kind it is binding. Particulars: 5 mM MgCl2, 20 mM Tris HCl pH 8.0, 150 mM NaCl; 20 °C; stoichiometric titration, two sites per hexamer; labelled compound.

For assay [2], the target named is T1, PfFlaI. The assay is described as follows: fluorescence competition against bound MANT-ATP. In kind it is binding. Conditions: 20 nM PfFlaI, 10 nM MANT-ATP; 5 mM MgCl2, 20 mM Tris HCl pH 8.0, 150 mM NaCl; 20 °C; Hill fit n = 0.67.
The target in assay [3] is T2, Pyrococcus furiosus FlaH (Pyrococcus furiosus, fluorescently labeled (in the microscale thermophoresis)).
T2 chain: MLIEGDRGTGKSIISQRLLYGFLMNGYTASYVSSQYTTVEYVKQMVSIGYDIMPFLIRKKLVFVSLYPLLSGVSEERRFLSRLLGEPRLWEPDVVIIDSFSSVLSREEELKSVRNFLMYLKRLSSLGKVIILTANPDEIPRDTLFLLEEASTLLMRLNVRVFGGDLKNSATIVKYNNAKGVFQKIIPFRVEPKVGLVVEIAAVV
Description: MST; 28 nM fluorescently labeled PfFlaH titrated with 1.3 nM-22.5 µM Pf-CTD or 5.6 nM-11.6 µM Pf-NTD; 20 mM Tris HCl pH 8.0, 150 mM NaCl, 0.05% Tween-20; Monolith NT.115 Pico; fitted to the Hill equation.

Assay [4] deals with Pyrococcus furiosus FlaI (Pyrococcus furiosus).
For assay [5] the target is unchanged. This is another data set of the same source.
For assay [6] the target is unchanged. Description: SEC; Superdex 200 10/300 GL; 500 µl of protein at 1 mg/ml; 20 mM Tris HCl pH 8.0, 150 mM NaCl; no nucleotide added; fractions on SDS-PAGE. (In general: Size exclusion chromatography separates by hydrodynamic size, large species first.)

Where two headings read alike, the source gives them in different places. Some results are limits rather than exact numbers.

For the molecule `CNc1ccccc1C(=O)O[C@H]1[C@@H](O)[C@H](n2cnc3c(N)ncnc32)O[C@@H]1COP(=O)(O)OP(=O)(O)OP(=O)(O)O` (mixture of isomers) [MANT-ATP, 2′-/3′-O-(N-methylanthraniloyl) adenosine 5′-triphosphate], the “fluorescence titration (excitation 285 nm, emission 450 nm)” value in assay [1] is listed as “only two of the ATP binding sites in the hexamer are available for binding of MANT-ATP”.

In the case of `Nc1ncnc2c1ncn2[C@@H]1O[C@H](COP(=O)(O)OP(=O)(O)OP(=O)(O)O)[C@@H](O)[C@H]1O` [ATP], the IC50 in assay [2] was 260 nM.

The molecule “N-terminal domain of Pyrococcus furiosus FlaI (domain or fragment)” yielded a Kd in assay [3] greater than 8000 nM.

The molecule “Pyrococcus furiosus FlaH (natural protein)” showed an ATPase activity of PfFlaI at 70 °C (malachite green) on addition of PfFlaH, proteins at 1 µM in assay [4] of 2 fold. The ATPase activity at 70 °C of 1 µM PfFlaI with increasing concentrations of PfFlaH; ratio at maximal stimulation (PfFlaH per PfFlaI) in assay [5] is 1.

Molecule Pyrococcus furiosus FlaI (enzyme) gave a stoichiometry N in assay [6] of 6.

B1: C-terminal domain of Pyrococcus furiosus FlaI (domain or fragment)
chain: LSITQLVAWGTMSAEIAAYLWLAIEYGMSIFVCGETASGKTTTLNAIIPFIKPGSKVYTAEDTPEVQVPHPTWQRLVTRERGPEESRVTLFDLLKAALRSRPNYIIVGEIRGAEGAIAFQAMQTGHPVMSTFHAGDVKKMIQRFTGSPINVPITFIDNLNIAIFQQAVYVKGKFLRRVINVVEIEGYYEELGGVATRNVFEWDPVSDKHIFRGMNNSYILEKKIAEIAGYEDPKDIYDELFLRARIIEKMVELKIFNYWDVYREIKAFYQRGLEGLSFRI
Consider B1, for which binding in assay [3] (both partners purified) was characterised by a dissociation constant (Kd) of 100 nM.
